Source: PMC3393671, “A Toxoplasma gondii Pseudokinase Inhibits Host IRG Resistance Proteins” (PLoS Biology, 2012)

Molecular target: T1, Irga6 (GST tag cleaved off) (mouse, UniProt Q9QZ85 1-411)
T1 construct: Irga6, mouse IRG protein, cleaved from the GST fusion as a near-native protein; Lacks the N-terminal myristoylation; In one NMR experiment [13C]-Met labelled; also called wt Irga6; purified Irga6; source: E. coli BL21 (pGEX-4T-2), purified (Glutathione Sepharose, thrombin cleavage, Superdex 75); not shown: GST, N-terminal, cleaved
T1 sequence: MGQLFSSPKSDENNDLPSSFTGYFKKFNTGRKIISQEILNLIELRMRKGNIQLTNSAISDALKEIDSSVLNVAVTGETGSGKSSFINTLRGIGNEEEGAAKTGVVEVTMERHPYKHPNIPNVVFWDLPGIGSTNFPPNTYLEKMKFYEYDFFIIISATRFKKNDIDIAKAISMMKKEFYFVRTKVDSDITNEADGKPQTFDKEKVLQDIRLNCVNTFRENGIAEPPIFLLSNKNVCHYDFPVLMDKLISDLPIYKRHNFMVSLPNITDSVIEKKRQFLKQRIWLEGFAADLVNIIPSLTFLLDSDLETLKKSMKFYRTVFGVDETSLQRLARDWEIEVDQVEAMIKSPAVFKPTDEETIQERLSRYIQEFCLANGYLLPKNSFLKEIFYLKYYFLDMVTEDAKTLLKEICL
Test: NMR titration; 13C-1H HSQC of [13C]-Met labelled ROP5BI without or with unlabeled Irga6; 30°C, 800 MHz
Settings: both partners purified

B1: ROP5BI pseudokinase domain (domain or fragment, Toxoplasma gondii (type I))
chain: EAGDSFMRDLLKREEELIGYCREEALKEPAAMVEAVTATVWPQNAETTVDSLLSQGERKLKLVEPLRVGDRSVVFLVRDVERLEDFALKVFTMGAENSRSELERLHEATFAAARLLGESPEEARDRRRLLLPSDAVAVQSQPPFAQLSPGQDDYAVANYLLLMPAASVDLELLFSTLDFVYVFRGDEGILALHILTAQLIRLAANLQSKGLVHGHFTPDNLFIMPDGRLMLGDVSALWKVGTRGPASSVPVTYAPREFLNASTATFTHALNAWQLGLSIYRVWCLFLPFGLVTPGIKGSWKRPSLRVPGTDSLAFGSCTPLPDFVKTLIGRFLNFDRRRRLLPLEAMETPEFLQLQNEISSSLSTGQ
notes: pseudokinase domain of ROP5 isoform B of a type I T. gondii strain (ROP5BI); In one NMR experiment [13C]-labelled on the Cε of methionines; also called purified pseudokinase domain protein ROP5BI; source: purified
binding result: binds
